From patent publication US20100178253A1 (published 2010)
Bridges are numbered along the chain shown (N, C = ends).

Assays:
human serum albumin = target: T1, human serum albumin (human, UniProt P02768 25-609); assay: fluorescence polarisation, change of polarisation value with human serum albumin
T1 construct: also called HSA; plasma protein (PPB)

[1] = target: T2, human c-Met/Fc chimera (R&D Systems) (human, UniProt P08581 25-932); assay: fluorescence polarisation (anisotropy), 5 nM dye-labelled peptide, c-Met/Fc 0-250 nM, one-site fit
T2 construct: Bought from R&D Systems; Printed once as 'c-Met/Fe chimera' [sic]; also called human c-Met/Fe chimera; not shown: Fc part (and any linker or tag) of the bought chimera
Procedure: The fluorescence anisotropy measurements were performed in 384-well microplates in a volume of 10 μL in binding buffer (PBS, 0.01% Tween-20, pH 7.5) using a Tecan Safire fluorescence polarisation plate reader (Tecan, US) at Ex 635/Em 678 nm. The to concentration of dye-labelled peptide was held constant (5 nM) and the concentration of the human c-Met/Fe chimera (R&D Systems) was varied from 0-250 nM. Binding mixtures were equilibrated in the microplate for 10 min at 30° C. The observed change in anisotropy was fit to the equation

T2 sequence (P08581 25-932 limits assumed, change not shown): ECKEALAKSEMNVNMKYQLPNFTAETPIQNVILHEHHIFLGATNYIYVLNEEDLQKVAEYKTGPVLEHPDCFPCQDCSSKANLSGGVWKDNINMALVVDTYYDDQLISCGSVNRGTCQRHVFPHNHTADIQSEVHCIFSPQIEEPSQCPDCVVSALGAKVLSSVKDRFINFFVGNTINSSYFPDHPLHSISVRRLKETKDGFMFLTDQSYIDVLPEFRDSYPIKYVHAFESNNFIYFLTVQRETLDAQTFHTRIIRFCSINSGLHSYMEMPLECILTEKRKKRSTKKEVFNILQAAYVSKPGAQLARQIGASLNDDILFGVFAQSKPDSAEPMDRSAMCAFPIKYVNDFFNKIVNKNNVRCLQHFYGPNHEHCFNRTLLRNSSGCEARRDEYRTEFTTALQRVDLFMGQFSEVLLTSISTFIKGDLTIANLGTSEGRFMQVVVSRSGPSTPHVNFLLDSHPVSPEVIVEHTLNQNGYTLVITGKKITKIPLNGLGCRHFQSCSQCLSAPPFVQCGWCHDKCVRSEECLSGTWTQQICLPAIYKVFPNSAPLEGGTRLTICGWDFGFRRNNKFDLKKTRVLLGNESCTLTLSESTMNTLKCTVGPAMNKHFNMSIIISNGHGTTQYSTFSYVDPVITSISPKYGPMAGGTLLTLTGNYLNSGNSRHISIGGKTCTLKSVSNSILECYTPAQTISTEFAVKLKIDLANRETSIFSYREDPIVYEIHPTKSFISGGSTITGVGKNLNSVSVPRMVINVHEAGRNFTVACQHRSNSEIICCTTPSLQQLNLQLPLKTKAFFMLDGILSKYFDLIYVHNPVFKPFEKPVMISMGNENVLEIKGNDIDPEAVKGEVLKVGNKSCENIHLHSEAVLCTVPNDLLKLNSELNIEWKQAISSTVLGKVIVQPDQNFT
T1 sequence (P02768 25-609 limits assumed): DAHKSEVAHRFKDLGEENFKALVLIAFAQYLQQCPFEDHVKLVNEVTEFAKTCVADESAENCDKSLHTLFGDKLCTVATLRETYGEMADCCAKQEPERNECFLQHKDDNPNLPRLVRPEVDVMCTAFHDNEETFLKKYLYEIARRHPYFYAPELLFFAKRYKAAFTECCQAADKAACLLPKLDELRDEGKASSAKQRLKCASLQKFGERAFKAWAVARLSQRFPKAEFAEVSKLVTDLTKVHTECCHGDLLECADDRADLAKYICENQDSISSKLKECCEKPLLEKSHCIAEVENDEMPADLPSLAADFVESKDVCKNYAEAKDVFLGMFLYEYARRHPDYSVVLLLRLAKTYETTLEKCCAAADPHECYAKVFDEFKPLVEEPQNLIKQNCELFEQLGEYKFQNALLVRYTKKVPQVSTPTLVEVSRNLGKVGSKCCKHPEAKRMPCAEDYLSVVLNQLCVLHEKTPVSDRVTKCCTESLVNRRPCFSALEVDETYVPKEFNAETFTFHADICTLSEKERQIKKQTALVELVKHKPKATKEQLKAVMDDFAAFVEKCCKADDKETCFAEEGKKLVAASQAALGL

B1: Compound 4 ([Peptide 1]-DY-650 conjugate) (peptide)
peptide: Ac-AGSCYCSGPPRFECWCYETEGTGGGK-NH2
modifications: disulfide 6-14, 4-16; not fully specified (residue 26); also: DY-650 dye attached, site not given here
PPB (% change in polarisation value) (human serum albumin): 55% | Kd [1]: 3.2 nM

B2: Compound 5 ([Peptide 1]-DY-651 conjugate) (peptide)
peptide: Ac-AGSCYCSGPPRFECWCYETEGTGGGK-NH2
modifications: disulfide 6-14, 4-16; not fully specified (residue 26); also: DY-651 dye attached, site not given here
PPB (% change in polarisation value) (human serum albumin): 49% | Kd [1]: 2.2 nM

B3: Compound 1 ([Peptide 1]-DY-630 conjugate) (peptide)
peptide: Ac-AGSCYCSGPPRFECWCYETEGTGGGK-NH2
modifications: disulfide 6-14, 4-16; not fully specified (residue 26); also: DY-630 dye attached, site not given here
notes: Printed in three-letter code, turned into one-letter code here
PPB (% change in polarisation value) (human serum albumin): 36% | Kd [1]: 2.2 nM

B4: Compound 6 ([Peptide 1]-DY-652 conjugate) (peptide)
peptide: Ac-AGSCYCSGPPRFECWCYETEGTGGGK-NH2
modifications: disulfide 6-14, 4-16; not fully specified (residue 26); also: DY-652 dye attached, site not given here
PPB (% change in polarisation value) (human serum albumin): 46% | Kd [1]: 0.9 nM

B5: Compound 2 ([Peptide 1]-DY-631 conjugate) (peptide)
peptide: Ac-AGSCYCSGPPRFECWCYETEGTGGGK-NH2
modifications: disulfide 6-14, 4-16; not fully specified (residue 26); also: DY-631 dye attached, site not given here
PPB (% change in polarisation value) (human serum albumin): 33% | Kd [1]: 0.5 nM

B6: Compound 3 ([Peptide 1]-DY-633 conjugate) (peptide)
peptide: Ac-AGSCYCSGPPRFECWCYETEGTGGGK-NH2
modifications: disulfide 6-14, 4-16; not fully specified (residue 26); also: DY-633 dye attached, site not given here
PPB (% change in polarisation value) (human serum albumin): 27% | Kd [1]: 0.5 nM
